Measured values published in patent US6716613B1, “Metalloprotease having aggrecanase activity” (Yamanouchi Pharmaceutical Co., Ltd., priority 1999, dated 2004).

B1: MDTS6Dis: protein of amino acids 1st to 518th position of SEQ ID NO:1 with the polypeptide of SEQ ID NO:33 added to the C-terminus (protein)
chain: FVSIPRYVETLVVADESMVKFHGADLEHYLLTLLATAARLYRHPSILNPINIVVVKVLLLRDRDSGPKVTGNAALTLRNFCAWQKKLNKVSDKHPEYWDTAILFTRQDLCGATTCDTLGMADVGTMCDPKRSCSVIEDDGLPSAFTTAHELGHVFNMPHDNVKVCEEVFGKLRANHMMSPTLIQIDRANPWSACSAAIITDFLDSGHGDCLLDQPSKPISLPEDLPGASYTLSQQCELAFGVGSKPCPYMQYCTKLWCTGKAKGQMVCQTRHFPWADGTSCGEGKLCLKGACVERHNLNKHRVDGSGSAAADYKDDDDK
B2: MDTS6Pro: protein of amino acids 1st to 447th position of SEQ ID NO:1 with the polypeptide of SEQ ID NO:33 added to the C-terminus (protein)
chain: FVSIPRYVETLVVADESMVKFHGADLEHYLLTLLATAARLYRHPSILNPINIVVVKVLLLRDRDSGPKVTGNAALTLRNFCAWQKKLNKVSDKHPEYWDTAILFTRQDLCGATTCDTLGMADVGTMCDPKRSCSVIEDDGLPSAFTTAHELGHVFNMPHDNVKVCEEVFGKLRANHMMSPTLIQIDRANPWSACSAAIITDFLDSGHGDCLLDQPSKPISLPEDLPGASYTLSQQGSAAADYKDDDDK
B3: MDTS6Cys: protein of amino acids 1st to 687th position of SEQ ID NO:1 with the polypeptide of SEQ ID NO:33 added to the C-terminus (protein)
chain: FVSIPRYVETLVVADESMVKFHGADLEHYLLTLLATAARLYRHPSILNPINIVVVKVLLLRDRDSGPKVTGNAALTLRNFCAWQKKLNKVSDKHPEYWDTAILFTRQDLCGATTCDTLGMADVGTMCDPKRSCSVIEDDGLPSAFTTAHELGHVFNMPHDNVKVCEEVFGKLRANHMMSPTLIQIDRANPWSACSAAIITDFLDSGHGDCLLDQPSKPISLPEDLPGASYTLSQQCELAFGVGSKPCPYMQYCTKLWCTGKAKGQMVCQTRHFPWADGTSCGEGKLCLKGACVERHNLNKHRVDGSWAKWDPYGPCSRTCGGGVQLARRQCTNPTPANGGKYCEGVRVKYRSCNLEPCPSSASGKSFREEQCEAFNGYNHSTNRLTLAVAWVPKYSGVSPRDKCKLICRANGTGYFYVLAPKVVDGTLCSPDSTSVCVQGKCIKAGCDGNLGSKKRFDKCGVCGGDNKSCKKVTGGSAAADYKDDDDK

Each molecule was assayed on recombinant aggrecan G1G2 (assay: Recombinant aggrecan G1G2 degradation by expressed MDTS6 proteins (western blotting)). Conditions: method of Example 7-3, anti-aggrecanase neoepitope antibody.
Assay type: biochemical, human
Experimental: In Example 6, the medium 12 to 16 hours after introduction of the expression plasmid was replaced by a serum-free medium, and the culturing was continued for 32 to 36 hours to recover the culture supernatant. This culture supernatant was mixed with the recombinant aggrecan prepared in the foregoing, and the mixture was allowed to undergo the reaction at 37° C. overnight, subjected to SDS-PAGE, transferred on a PVDF membrane and blocked by the method described in Example 6 and then allowed to react with an anti-Hisx6 polyclonal antibody (sc-803; mfd. by Santa Cruz Biotechnology) and a horseradish peroxidase-labeled goat anti-rabbit IgG polyclonal antibody (mfd. by BML) in that order. After the reaction, the recombinant aggrecan was detected using an ECL western blotting system (mfd. by Amersham Pharmacia). As a result, degraded fragment of the recombinant aggrecan, which was not found in the control in which only the […] was introduced, was detected (FIG. 2).
Aggrecanase is a metalloprotease which selectively cleaves aggrecan at the site between Glu^373 -Ala^374. An antibody capable of recognizing a C-side neoepitope generated by this cleavage was prepared in accordance with a usual method by repeating immunization of mouse with a conjugate of the synthetic peptide represented by SEQ ID NO:32 and KLH, 5 times. A PVDF membrane after transfer and blocking carried out in the same manner as in Example 7-2 was allowed to react with this antibody, allowed to react with a peroxidase-labeled goat anti-mouse IgG polyclonal antibody (mfd. by Tago) and then detected using an ECL western blotting detection system (mfd. by Amersham Pharmacia). As a result, the degraded product of recombinant aggrecan generated by MDTS6 reacted with the anti-aggrecanase neoepitope antibody, and molecular weight of the detected band is consistent with the molecular weight of the degraded product detected in Example 7-2 (FIG. 3). The same result was obtained by the BC-3 antibody which recognizes aggrecanase neoepitope (Hughes C. E. et al., Biochemical J., 305, 799-804, 1995). […]
B1 was tested, and the “aggrecanase activity in culture supernatant” value (“aggrecanase activity” below) was “not detected”. B2 was tested, and the “aggrecanase activity” value was “not detected”. For B3, the “aggrecanase activity” value was “detected”.
